Reference: PMC4520770

Tests used:
Assay in all cases: fluorescence polarisation
[1] = target: Bim_A2eT_E2gG (UniProt O43521)
[2] = target: Bim_A2eT (UniProt O43521)
[3] = target: Bim_R3bS (UniProt O43521)
[4] = target: KL6-7_D3fA
[5] = target: KL6-7_Y4eK
[6] = target: Bim BH3 peptide (23 residues, fluoresceinated) (UniProt O43521)
[7] = target: BL6-22_Y4eK

Bcl-w (human), c-myc-tagged, sequence (Q92843 whole entry): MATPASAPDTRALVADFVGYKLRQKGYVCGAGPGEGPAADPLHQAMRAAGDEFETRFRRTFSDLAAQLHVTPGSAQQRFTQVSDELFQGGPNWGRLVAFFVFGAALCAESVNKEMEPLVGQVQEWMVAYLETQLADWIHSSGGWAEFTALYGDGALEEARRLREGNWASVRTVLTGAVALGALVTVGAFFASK
Bfl-1 (human), c-myc-tagged, sequence (Q16548 whole entry): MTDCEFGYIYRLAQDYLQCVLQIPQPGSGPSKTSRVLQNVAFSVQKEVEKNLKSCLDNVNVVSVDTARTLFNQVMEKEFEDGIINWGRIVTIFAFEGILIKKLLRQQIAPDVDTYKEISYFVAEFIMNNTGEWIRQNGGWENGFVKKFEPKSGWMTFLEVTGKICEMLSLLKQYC

Row | Substance | Kd [1] [nM] | Kd [2] [nM] | Kd [3] [nM] | Kd [4] [nM] | Kd [5] [nM] | Kd [6] [nM] | Kd [7] [nM]
1 | Bcl-2 (human), c-myc-tagged (from UniProt P10415 1-239) (natural protein) | 150 | 44 | 7.2 |  |  |  | 
2 | Bfl-1 (human), c-myc-tagged (from UniProt Q16548 1-175) (natural protein) | 260 | 32 | 5.2 |  |  |  | 
3 | M11 (murine gamma herpesvirus γHV68 Bcl-2 homolog), BAP- and His6-tagged (from UniProt P89884 1-171) (natural protein) | 15 | 78 |  |  |  |  | 
4 | Bcl-w (human), c-myc-tagged (from UniProt Q92843 1-193) (natural protein) | 98 | 40 | 18 |  |  |  | 
5 | KSBcl-2 (Kaposi's sarcoma-associated herpesvirus Bcl-2 homolog), c-myc-tagged (from UniProt P90504 1-175) (natural protein) | 1.1 | 1.8 | 1.5 |  |  |  | 
6 | Mcl-1 (human), c-myc-tagged (from UniProt Q07820 1-350) (natural protein) | 1.6 | 0.62 | < 1 | > 5000 | 7800 | < 1 | 
7 | BHRF1 (Epstein-Barr virus Bcl-2 homolog), c-myc-tagged (from UniProt P03182 1-191) (natural protein) | > 1000 | 64 |  | > 1000 | > 1000 |  | 30
8 | Bcl-xL (human), c-myc-tagged (from UniProt Q07817-1 1-233) (natural protein) | 42 | 18 | 3.8 |  |  |  | 
